# Test results as given in article PMC4663267, “A Novel C-Terminal Domain of RecJ is Critical for Interaction with HerA in Deinococcus radiodurans”.
# T1: DrRecJ;DrHerAΔN (Deinococcus radiodurans;Deinococcus …, UniProt D0EM60;Q9RW32 1-705;136-618, |)
# T1 sequence 1: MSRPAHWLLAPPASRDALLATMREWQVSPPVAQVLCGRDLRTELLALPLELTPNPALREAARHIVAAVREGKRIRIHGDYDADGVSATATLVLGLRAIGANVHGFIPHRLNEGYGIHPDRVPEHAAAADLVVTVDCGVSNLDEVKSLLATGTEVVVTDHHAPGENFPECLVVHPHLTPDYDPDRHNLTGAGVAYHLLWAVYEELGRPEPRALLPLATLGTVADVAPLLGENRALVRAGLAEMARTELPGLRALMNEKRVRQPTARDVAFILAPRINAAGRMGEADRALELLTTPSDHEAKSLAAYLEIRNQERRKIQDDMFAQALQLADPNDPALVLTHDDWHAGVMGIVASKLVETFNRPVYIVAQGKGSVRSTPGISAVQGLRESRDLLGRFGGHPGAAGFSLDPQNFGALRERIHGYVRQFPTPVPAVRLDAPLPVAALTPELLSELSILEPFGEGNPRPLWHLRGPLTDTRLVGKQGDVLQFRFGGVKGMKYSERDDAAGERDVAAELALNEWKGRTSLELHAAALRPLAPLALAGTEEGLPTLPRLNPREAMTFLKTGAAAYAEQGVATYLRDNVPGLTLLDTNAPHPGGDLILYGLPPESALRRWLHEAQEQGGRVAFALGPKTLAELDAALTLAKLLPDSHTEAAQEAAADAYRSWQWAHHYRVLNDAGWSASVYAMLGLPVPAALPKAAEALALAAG
# T1 sequence 2: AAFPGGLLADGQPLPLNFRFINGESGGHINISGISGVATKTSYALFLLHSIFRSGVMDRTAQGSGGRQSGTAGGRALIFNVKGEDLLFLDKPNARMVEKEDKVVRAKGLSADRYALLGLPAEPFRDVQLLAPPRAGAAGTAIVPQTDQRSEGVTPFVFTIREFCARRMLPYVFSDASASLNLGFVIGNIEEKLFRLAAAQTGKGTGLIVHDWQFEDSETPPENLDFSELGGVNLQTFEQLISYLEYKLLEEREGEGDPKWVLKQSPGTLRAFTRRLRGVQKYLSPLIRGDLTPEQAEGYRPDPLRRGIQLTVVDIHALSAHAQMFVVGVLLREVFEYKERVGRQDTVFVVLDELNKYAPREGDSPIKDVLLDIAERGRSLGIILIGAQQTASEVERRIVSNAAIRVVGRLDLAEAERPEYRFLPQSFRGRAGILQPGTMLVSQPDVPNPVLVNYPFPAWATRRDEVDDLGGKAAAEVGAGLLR
# T2: DrRecJ;DrHerA (Deinococcus radiodurans;Deinococcus …, UniProt D0EM60;Q9RW32 1-705;1-618, |)
# T2 sequence 1: T1 sequence 1
# T2 sequence 2: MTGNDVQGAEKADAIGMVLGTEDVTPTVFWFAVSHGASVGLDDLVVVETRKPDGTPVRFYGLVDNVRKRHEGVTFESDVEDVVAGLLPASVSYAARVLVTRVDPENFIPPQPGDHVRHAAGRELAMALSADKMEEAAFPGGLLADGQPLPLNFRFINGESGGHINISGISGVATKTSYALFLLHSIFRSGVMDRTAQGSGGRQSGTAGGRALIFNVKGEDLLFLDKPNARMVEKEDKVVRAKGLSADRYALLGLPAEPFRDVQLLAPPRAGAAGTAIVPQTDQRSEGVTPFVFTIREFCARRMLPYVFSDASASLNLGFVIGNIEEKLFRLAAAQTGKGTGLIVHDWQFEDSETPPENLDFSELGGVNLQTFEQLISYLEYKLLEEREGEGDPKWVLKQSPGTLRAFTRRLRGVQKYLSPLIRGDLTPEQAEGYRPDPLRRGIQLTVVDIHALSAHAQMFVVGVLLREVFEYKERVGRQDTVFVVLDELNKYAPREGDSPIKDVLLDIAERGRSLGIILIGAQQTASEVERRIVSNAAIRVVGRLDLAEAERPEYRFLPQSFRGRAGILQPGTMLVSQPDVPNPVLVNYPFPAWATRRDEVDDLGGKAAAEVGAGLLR
# How the values were obtained:
# DrRecJ;DrHerAΔN = target: T1, DrRecJ;DrHerAΔN; assay: EMSA; with 4 uM DrNurA (dimer, P6), 800 nM HerAΔN hexamer; stimulation not decreased; EMSA: 100 nM DNA, 80 mM NaCl, 20 mM Tris-HCl pH 7.5, 1 mM DTT, 30 C, 10 min, 5% TBE native PAGE; conditions: protein: recombinant;recombinant; tags: HMT (His6-MBP) tag removed by TEV;N-terminal His6; copies: 1;6; label: 5' FAM; single strand
# DrRecJ;DrHerA = target: T2, DrRecJ;DrHerA; assay: EMSA; HerA hexamer:RecJ 8:1; super-shift, RecJ binding enhanced; EMSA: 100 nM DNA, 80 mM NaCl, 20 mM Tris-HCl pH 7.5, 1 mM DTT, 30 C, 10 min, 5% TBE native PAGE; conditions: protein: recombinant;recombinant; tags: HMT (His6-MBP) tag removed by TEV;N-terminal His6; copies: 1;6; label: 5' FAM; single strand
binder,measurement,setting,value
AAAAAAAAAA (ssDNA) [O1 (10 nt ssDNA)],binding result,DrRecJ;DrHerAΔN,binds
same,binding result,DrRecJ;DrHerA,binds
